# Experimental data from publication PMC2172957.
# Molecular target: neuronal receptor for agrin (mouse (endogenous in cortical neurons))
# Assay: immunostaining of cells or tissue
substance,measurement,value
"rC-Ag_(y4z8), soluble 95-kD COOH-terminal fragment of rat agrin (domain or fragment)",reduction of C-Ag20z8 labeling at a 1:1 molar ratio of C-Ag20z8 to rC-Ag (y4z8),30%
